This passage reports Kd and percent of particles with bound Fab results from PMC4963090 (PLoS ONE, 2016).

Test [1] deals with head-only RSV F immunogen i-210 (respiratory syncytial virus subtype A, strain A2 | bacteriophage T4) (UniProt P03420). As to the kind of experiment: BLI; head-only variants (50 ug/ml) held on anti-His-tag (HIS1K) tips; Fabs in solution 0.016-0.5 uM; 30°C, PBS + 1% BSA; global 1:1 fit. (In BLI a coated tip is dipped into the sample, and binding shifts an interference pattern.)
The target of test [2] is head-only RSV F immunogen i-273 (respiratory syncytial virus subtype A, strain A2) (UniProt P03420). The test is described as above.
For test [3] the target is unchanged. As to the kind of experiment: negative-stain electron microscopy; immunogens alone or mixed with D25 and/or motavizumab Fabs; 20 mM HEPES pH 7.0, 150 mM NaCl; uranyl formate; reference-free 2D class averages.
In test [4] the target is T1, head-only RSV F immunogen i-273 (Human respiratory syncytial virus A, …, S155C | S190F | V207L | S290C | L258K | L273K).
T1 construct: RSV fusion (F) glycoprotein, subtype A strain A2, F1 segment of domain III (head); numbers count on: PDB entry 4JHW; linker; RSV fusion (F) glycoprotein, subtype A strain A2, F2 segment of domain III (head); Circular permutant F1-GG-F2; A signal peptide for secretion was added; Tags are thrombin-cleavable: held by the His-tag in the kinetic BLI; said to be cleaved before SEC, EM and immunisation; …
T1 chain: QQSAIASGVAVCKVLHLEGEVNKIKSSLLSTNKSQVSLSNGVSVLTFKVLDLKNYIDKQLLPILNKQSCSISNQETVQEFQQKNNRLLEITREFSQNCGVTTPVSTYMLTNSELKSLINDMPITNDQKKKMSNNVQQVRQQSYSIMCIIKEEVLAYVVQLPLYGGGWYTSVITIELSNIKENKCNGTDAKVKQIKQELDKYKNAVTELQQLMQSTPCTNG
As to the kind of experiment: BLI; head-only variants (50 ug/ml) held on anti-His-tag (HIS1K) tips; Fabs in solution 0.016-0.5 uM; 30°C, PBS + 1% BSA; global 1:1 fit. The conditions noted are these: both partners purified.

Test [5] has as its target T2, head-only RSV F immunogen i-693 (Human respiratory syncytial virus A, …, S155C | S190F | V207L | S290C | S155C | S190F | V207L | S290C).
T2 construct: RSV fusion (F) glycoprotein, subtype A strain A2, F2 segment of domain III, first monomer; numbers count on: PDB entry 4JHW; linker between F2 and F1; RSV fusion (F) glycoprotein, subtype A strain A2, F1 segment, first monomer; linker between the two identical monomers; RSV fusion (F) glycoprotein, subtype A strain A2, F2 segment of domain III, second monomer; RSV fusion (F) glycoprotein, subtype …
T2 chain: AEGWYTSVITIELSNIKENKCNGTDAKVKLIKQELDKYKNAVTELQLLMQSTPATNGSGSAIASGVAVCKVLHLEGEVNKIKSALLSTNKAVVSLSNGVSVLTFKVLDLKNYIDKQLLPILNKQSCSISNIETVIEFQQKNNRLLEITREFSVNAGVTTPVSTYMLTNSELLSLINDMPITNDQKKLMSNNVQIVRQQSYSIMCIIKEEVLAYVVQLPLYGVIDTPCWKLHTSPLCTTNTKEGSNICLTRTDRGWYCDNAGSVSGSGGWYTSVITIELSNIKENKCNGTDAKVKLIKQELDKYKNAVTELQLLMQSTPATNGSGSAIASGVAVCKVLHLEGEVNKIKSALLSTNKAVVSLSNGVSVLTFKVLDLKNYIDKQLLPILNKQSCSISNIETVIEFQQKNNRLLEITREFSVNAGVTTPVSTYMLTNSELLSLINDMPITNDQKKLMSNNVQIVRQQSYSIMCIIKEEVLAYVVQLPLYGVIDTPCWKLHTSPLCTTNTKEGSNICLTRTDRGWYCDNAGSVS
The test is described as above. As to conditions: both partners purified.

Test [6] deals with T3, head-only RSV F immunogen i-210 (Human respiratory syncytial virus A, …, S155C | S190F | V207L | S290C | L258K).
T3 construct: RSV fusion (F) glycoprotein, subtype A strain A2, F1 segment of domain III (head); numbers count on: PDB entry 4JHW; linker; RSV fusion (F) glycoprotein, subtype A strain A2, F2 segment of domain III (head); linker to the foldon; bacteriophage T4 foldon trimerization domain (of fibritin); Circular permutant F1-GGSGG-F2-GGSGGSG-foldon; A signal peptide for secretion was added; Tags are …
T3 chain: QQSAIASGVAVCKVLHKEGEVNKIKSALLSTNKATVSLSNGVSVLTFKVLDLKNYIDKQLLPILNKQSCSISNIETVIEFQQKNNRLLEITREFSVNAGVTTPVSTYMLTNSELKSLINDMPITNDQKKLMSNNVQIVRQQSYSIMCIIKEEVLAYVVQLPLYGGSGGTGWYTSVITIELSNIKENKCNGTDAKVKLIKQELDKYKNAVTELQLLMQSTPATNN
The description is as above. As to conditions: both partners purified.

The target of test [7] is T4, head-only RSV F immunogen i-447 (Human respiratory syncytial virus A, …, S190F | S155C | S290C).
T4 construct: RSV fusion (F) glycoprotein, subtype A strain A2, F1 segment of domain III (head); numbers count on: PDB entry 4JHW; linker; RSV fusion (F) glycoprotein, subtype A strain A2, F2 segment of domain III (head); MTQ-F1-GGPG-F2; A signal peptide for secretion was added; Tags are thrombin-cleavable: held by the His-tag or Strep-tag in BLI; said to be cleaved before SEC, EM and immunisation; also called …
T4 chain: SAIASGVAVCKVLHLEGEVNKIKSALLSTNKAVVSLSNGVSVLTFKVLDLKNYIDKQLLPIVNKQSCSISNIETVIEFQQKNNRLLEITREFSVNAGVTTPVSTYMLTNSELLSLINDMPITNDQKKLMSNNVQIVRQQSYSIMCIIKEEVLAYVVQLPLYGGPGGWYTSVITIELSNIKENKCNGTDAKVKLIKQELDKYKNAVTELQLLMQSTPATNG
The test is described as above. The conditions noted are these: both partners purified.

A word on the Kd: it is a measure of binding affinity in units of concentration. Consider motavizumab Fab, for which the Kd was 761 nM in test [1] and 1360 nM in test [2]. Besides, the percent of particles with bound Fab in test [3] was < 10%.

B1: D25 Fab (Fab, V domains shown)
VH: QVQLVQSGAEVKKPGSSVMVSCQASGGPLRNYIINWLRQAPGQGPEWMGGIIPVLGTVHYAPKFQGRVTITADESTDTAYIHLISLRSEDTAMYYCATETALVVSTTYLPHYFDNWGQGTLVTVSS
VL: DIQMTQSPSSLSAAVGDRVTITCQASQDIVNYLNWYQQKPGKAPKLLIYVASNLETGVPSRFSGSGSGTDFSLTISSLQPEDVATYYCQQYDNLPLTFGGGTKVEIK
notes: Antigenic site Ø-directed antibody; also called Fab D25; source: HEK 293-F, co-transfected heavy and light chain plasmids; IgG on Protein A, digested with Lys-C or HRV3C protease, Fab purified by SEC
For B1, the Kd was 33.3 nM in test [4], 9.9 nM in test [5], 0.7 nM in test [6] and 0.7 nM in test [7].

B2: motavizumab Fab (Fab, V domains shown)
VH: QVTLRESGPALVKPTQTLTLTCTFSGFSLSTAGMSVGWIRQPPGKALEWLADIWWDDKKHYNPSLKDRLTISKDTSKNQVVLKVTNMDPADTATYYCARDMIFNFYFDVWGQGTTVTVSS
VL: DIQMTQSPSTLSASVGDRVTITCSASSRVGYMHWYQQKPGKAPKLLIYDTSKLASGVPSRFSGSGSGTEFTLTISSLQPDDFATYYCFQGSGYPFTFGGGTKVEIK
notes: Antigenic site II-directed antibody; also called Fab motavizumab; source: HEK 293-F, co-transfected heavy and light chain plasmids; IgG on Protein A, digested with Lys-C or HRV3C protease, Fab purified by SEC
In the case of B2, the Kd in test [5] came to 6.5 nM; in test [7] it was 0.5 nM.
